Source: patent publication US20020123082A1

Target: human p27, wild type (human) (UniProt P46527)
Assay: cell-based or functional assay

Chain of human p27, wild type (human) (P46527 whole entry): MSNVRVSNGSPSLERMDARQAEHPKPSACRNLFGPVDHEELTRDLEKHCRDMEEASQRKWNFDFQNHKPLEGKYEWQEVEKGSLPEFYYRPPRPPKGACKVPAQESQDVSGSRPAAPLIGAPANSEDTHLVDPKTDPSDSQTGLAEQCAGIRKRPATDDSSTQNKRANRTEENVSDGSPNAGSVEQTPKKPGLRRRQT

- p27 half-life, pulse chase analysis in NIH-3T3 cells: 3 h
Substance: (ΔF)Skp2, F-box deleted Skp2 mutant lacking residues 113-152 (from UniProt Q13309 1-112; Q13309 141-424)
